Patent US20100279930A1, “HUMAN PANCREATIC POLYPEPTIDE (HPP) ANALOGUES AND THEIR EFFECTS ON FEEDING BEHAVIOUR” (priority 2007, published 2010)

Tested on: Male C57BL/6 mice
Assay: In vivo food intake experiments in mice (half-life in the blood judged from appetite suppression)
Set-up: species or system mouse
Settings: comparator native human PP; judged from food intake reduction in mice (4-8 h, 0-24 h, 4:1 or 24:1 ratio)
Experimental: In Vivo Food Intake Experiments
Male C57BL/6 mice (20-30 g) were used for all mouse experiments. Mice were individually housed in IVC cages. Animals were randomized by weight and fasted overnight for 16 hrs before intraperitoneal injection at 9 am. All peptide solutions were prepared freshly the morning of the study and injected as 100 ul. Food intake was measured at 1, 2, 3, 4, 6, 8 and 24 hours post injection. The peptide was dosed at 30 nmol/kg, 50 nmol/kg, 100 nmol/kg, 120 nmol/kg, 150 nmol/kg, 300 nmol/kg, 600 nmol/kg or 1000 nmol/kg depending on the activity. In each case, a control of saline and a control of unmodified human Pancreatic Polypeptide was carried out. All statistics are calculated using a one-way ANOVA with Dunnett's post-test or one-way ANOVA with Bonferroni post-test.
A control of saline was used.
FIG. 2 and in the comparative graph of FIG. 3. […] It is hypothesized that that is as a possible result of stronger activity at the receptor and longer activity.
The mouse is a good model for degradation rates in humans, irrespective of the fact that the receptors for PP in mice are different from the human receptor.

B1: 4055860 (peptide)
chain: CAPLEPVYPGDNATPEQMAQYAADLRRYINMLTRPRYCAPLEPVYPGDNATPEQMAQYAADLRRYINMLTRPRY
modifications: synthetic hPP analogue peptide
half-life in the blood compared with native human PP: longer half life
